Source: patent US12692524B2, “Sialyltransferases and their use in producing sialylated oligosaccharides” (Chr. Hansen A/S, priority 2017, dated 2026)

B1: SiaT13: sialyltransferase of Streptococcus agalactiae, acc. AB050723, SEQ ID NO: 17 (protein, listed as Streptococcus agalactiae)
chain: MTNRKIYVCHTLYHLLICLYKEEIYSNLEIILSSSIPDVDNLEKKLKSKTINIHILEESSGESEELLSVLKDAGLSYSKFDSNCFIFNDATPIGRTLIKHGIYYNLIEDGLNCFTYSIFSQKLWKYYVKKYILHKIQPHGFSRYCLGIEVNSLVNLPKDPRYKKFIEVPRKELFDNVTEYQKEMAINLFGAVRVSIKSPSVLVLTQPLSIDKEFMSYNNKIETSEEQFNFYKSIVNEYINKGYNVYLKVHPRDVVDYSKLPVELLPSNVPMEIIELMLTGRFECGITHSSTALDFLTCVDKKITLVDLKDIK
B2: SiaT14: sialyltransferase of Haemophilus-somnus-2336, acc. ACA31578, SEQ ID NO: 26 (protein, listed as Haemophilus somnus)
chain: MFREDNMNLIICCTPLQVIIAEKIIERYPEQKFYGVMLESFYNDKFDFYENKLKHLCHEFFCIKIARFKLERYKNLLSLLKIKNKTFDRVFLANIEKRYIHIILSNIFFKELYTFDDGTANIAPNSHLYQEYDHSLKKRITDILLPNHYNSNKVKNISKLHYSIYRCKNNIIDNIEYMPLFNLEKKYTAQDKSISILLGQPIFYDEEKNIRLIKEVIAKFKIDYYFPHPREDYYIDNVSYIKTPLIFEEFYAERSIENSIKIYTFFSSAVLNIVTKENIDRIYALKPKLTEKAYLDCYDILKDFGIKVIDI
B3: SiaT15: sialyltransferase of Haemophilus ducreyi 35000HP, acc. AF101047, SEQ ID NO: 14 (protein, listed as Haemophilus ducreyi)
chain: MKEIAIISNQRMFFLYCLLTNKNVEDVFFIFEKGAMPNNLTSISHFIVLDHSKSECYDFFYFNFISCKYRLRGLDVYGADHIKGAKFFLERHRFFVVEDGMMNYSKNMYAFSLFRTRNPVILPGGFHPNVKTIFLTKDNPIPDQIAHKREIINIKTLWQAKTATEKTKILSFFEIDMQEISVIKNRSFVLYTQPLSEDKLLTEAEKIDIYRTILTKYNHSQTVIKPHPRDKTDYKQLFPDAYVMKGTYPSELLTLLGVNFNKVITLFSTAVFDYPKEKIDFYGTAVHPKLLDFFD
B4: SiaT2: sialyltransferase of Campylobacter jejuni strain OH4384, acc. AF130466, SEQ ID NO: 10 (protein, listed as Campylobacter jejuni)
chain: MTRTRMENELIVSKNMQNIIIAGNGPSLKNINYKRLPREYDVFRCNQFYFEDKYYLGKKIKAVFFNPGVFLQQYHTAKQLILKNEYEIKNIFCSTFNLPFIESNDFLHQFYNFFPDAKLGYEVIENLKEFYAYIKYNEIYFNKRITSGVYMCAIAIALGYKTIYLCGIDFYEGDVIYPFEAMSTNIKTIFPGIKDFKPSNCHSKEYDIEALKLLKSIYKVNIYALCDDSILANHFPLSININNNFTLENKHNNSINDILLTDNTPGVSFYKNQLKADNKIMLNFYNILHSKDNLIKFLNKEIAVLKKQTTQRAKARIQNHLSYKLGQALIINSKSVLGFLSLPFIILSIVISHKQEQKAYKFKVKKNPNLALPPLETYPDYNEALKEKECFTYKLGEEFIKAGKNWYGEGYIKFIFKDVPRLKREFEKGE
B5: SiaT16: sialyltransferase of Haemophilus ducreyi 35000HP, acc. AAP95068, SEQ ID NO: 27 (protein, listed as Haemophilus ducreyi)
chain: MLIQQNLEIYLDYATIPSLACFMHFIQHKDDVDSIRLFGLARFDIPQSIIDRYPANHLFYHNIDNRDLTAVLNQLADILAQENKRFQINLHLNLFHSIDLFFAIYPIYQQYQHKISTIQLQLYDDGSEGIVTQHSLCKIADLEQLILQHKNVLLELLTKGTANVPNPTLLRYLWNNIIDSQFHLISDHFLQHPKLQPLKRLLKRYTILDFTCYPRFNAEQKQLLKEILHISNELENLLKLLKQHNTFLFTGTTAFNLDQEKLDLLTQLHILLLNEHQNPHSTHYIGNNYLLLIKGHANSPALNHTLALHFPDAIFLPANIPFEIFAMLGFTPNKMGGFASTSYINYPTENINHLFFLTSDQPSIRTKWLDYEKQFGLMYSLLAMQKINEDQAFMCTIHN
B6: SiaT10: sialyltransferase of Pasteurella multocida PM70, acc. AAK02272, SEQ ID NO: 4 (protein, listed as Pasteurella multocida)
chain: MKTITLYLDPASLPALNQLMDFTQNNEDKTHPRIFGLSRFKIPDNIITQYQNIHFVELKDNRPTEALFTILDQYPGNIELDIHLNIAHSVQLIRPILAYRFKHLDRVSIQRLNLYDDGSMEYVDLEKEENKDISAEIKQAEKQLSHYLLTGKIKFDNPTIARYVWQSAFPVKYHFLSTDYFEKAEFLQPLKEYLAENYQKMDWTAYQQLTPEQQAFYLTLVGFNDEVKQSLEVQQAKFIFTGTTTWEGNTDVREYYAQQQLNLLNHFTQAGGDLFIGDHYKIYFKGHPRGGEINDYILNNAKNITNIPANISFEVLMMTGLLPDKVGGVASSLYFSLPKEKISHIIFTSNKQVKSKEDALNNPYVKVMRRLGIIDESQVIFWDSLKQL

Assay: In vitro sialylation of LNT by protein extracts, LST-a/-b quantified by LC-MS/MS
Type: biochemical
Conditions: 5 mM LNT, 10 mM CMP-Neu5Ac, 16 hours, LC-MS/MS; relative quantity; n.d.: not detectable
Experimental: Escherichia coli BL21(DE3) harbouring plamids encoding for 100 sialyltransferases were grown at 30° C. in 100 ml shake flasks filled with 20 ml of 2YT medium supplemented with ampicillin 100 μg ml^−1. When the cultures reached an OD600 of 0.1 to 0.3, gene expression was induced by addition of 0.3 mM IPTG and the incubation was continued for 12 to 16 hours. Cells were harvested by centrifugation and mechanically disrupted in a defined volume of 50 mM Tris-HCl pH7.5 using glass beads. The protein extract was kept on ice until the assay started. The in vitro assay was carried out in a total volume of 25 μl including 50 mM Tris-HCl pH7.5, 5 mM MgCl2, 10 mM CMP-Neu5Ac and 5 mM LNT. The assay started with the addition of 3 μl protein extract and continued for 16 hours. Product formation was determined by mass spectrometry.
Mass spectrometry analysis was performed by MRM (multiple reaction monitoring) using a LC Triple-Quadrupole MS detection system. Precursor ions are selected and analyzed in quadrupole 1, fragmentation takes place in the collision cell using argon as CID gas, selection of fragment ions is performed in quadrupole 3. Chromatographic separation of lactose, 3′-Sialyllactose and 6′-Sialyllactose after dilution of culture supernatant 1:100 with H2O (LC/MS Grade), was performed on a XBridge Amide HPLC column (3.5 μm, 2.1×50 mm (Waters, USA) with a XBridge Amide guard cartridge (3.5 μm, 2.1×10 mm) (Waters, USA). Column oven temperature of the HPLC system was 50° C. The mobile phase was composed of acetonitrile:H2O with 10 mM ammonium acetate. A 1 μl sample was injected into the instrument; the run was performed for 3.60 min with a flow rate of 400 μl/min. 3′-Sialyllactose and 6′-Sialyllactose were analyzed by MRM in ESI positive ionization mode. The mass spectrometer was operated at unit resolution. Sialyllactose forms an ion of m/z 656.2 [M+Na]. The precursor ion of Sialyllactose was further fragmented in the collision cell into the fragment ions m/z 612.15, m/z 365.15 and m/z 314.15. Collision energy, Q1 and Q3 Pre Bias were optimized for each analyte individually. Chromatographic separation of lactose, LNT-II, LNT and LST-a or -b after dilution of particle-free biocatalysis-reaction or crude extract, respectively, 1:50 with H2O (LC/MS Grade), was performed on a XBridge Amide HPLC column (3.5 μm, 2.1×50 mm (Waters, USA) with a XBridge Amide guard cartridge (3.5 μm, 2.1×10 mm) (Waters, USA). Column oven was run at 35° C. The mobile phase was composed of acetonitrile:H2O with 0.1% ammonium hydroxide. A 1 μl sample was injected into the instrument; the run was performed for 3.50 min with a flow rate of 300 μl/min. Lactose, LNT-II, LNT as well as LST-a and -b were analyzed by MRM in ESI negative ionization mode. The mass spectrometer was operated at unit resolution. Lactose forms an ion of m/z 341.00 [M−H]. The precursor ion of Lactose was further fragmented in the collision cell into the fragment ions m/z 179.15, m/z 161.15 and m/z 101.05. LNT-II forms an ion of m/z 544.20 [M−H]. The precursor ion of LNT-II was further fragmented into the fragment ions m/z 382.10, m/z 161.00 and m/z 112.90. LNT forms an ion of m/z 706.20 [M−H]. The precursor ion of LNT was further fragmented into the fragment ions m/z 382.10, m/z 202.10 and m/z 142.00. LST-a and -b forms an ion of m/z 997.20 [M−H]. The precursor ion of LST-a and-b was further fragmented into the fragment ions m/z 290.15, m/z 202.15 and m/z 142.15. Collision energy, Q1 and Q3 Pre Bias were optimized for each analyte individually. Quantification methods were established using commercially available standards (Carbosynth, Compton, UK).
Twenty eight genes were identified to produce LST-a whereas only 6 enzymes synthesized LST-b. […] Irrespectively of the protein overexpression level, sialyltransferases that produced best were selected for determination of Km and Vmax.

| Molecule | Relative efficacy of sialyltransferases regarding in-vitro production of sialyllacto-N-tetraoses: LST-a |
| --- | --- |
| B1 | 24 |
| B2 | 2 |
| B3 | 204 |
| B4 | 749 |
| B5 | 1 |
| B6 | 3.18 × 10^3 |

Assay: In vivo screening in E. coli #1363/#1730 with lactose as acceptor, sialyllactose identified by TLC
Type: cell-based, Escherichia coli BL21(DE3)
Conditions: 1.5 mM lactose, 72 to 96 hours, qualitative via TLC
Experimental: Escherichia coli BL21(DE3) #1363 and #1730 harbouring plasmids encoding for 100 sialyltransferases were grown at 30° C. in 100 ml shake flasks filled with 20 ml of mineral salts medium (Samain et al., J. Biotech. 1999, 72:33-47) supplemented with 2% (wt/vol) glucose, ampicillin 100 μg ml^−1, kanamycin 15 μg ml^−1 and zeocin 40 μg ml^−1. When the cultures reached an OD600 of 0.1 to 0.3, gene expression was induced by addition of 0.3 mM IPTG. After an incubation for one hour, 1.5 mM lactose was added to #1363 cultures whereas 1.5 mM lactose as well as 1.5 mM sialic acid was added to #1730 cultures. The incubation continued for 72 to 96 hours. Then, cells were harvested by centrifugation and mechanically disrupted in a defined volume using glass beads. Subsequently, samples were applied to thin layer chromatography (TLC) on Silica Gel 60 F254 (Merck KGaA, Darmstadt, Germany). A mixture of butanol:acetone:acetic acid:H2O (35/35/7/23 (v/v/v/v)) was used as mobile phase. For detection of the separated substances, the TLC plate was soaked with thymol reagent (0.5 g thymol solved in 95 ml ethanol, 5 ml sulfuric acid added) and heated.
In the entire screening, thirty two genes were identified to encode for α-2,3-sialyltransferases, thus producing 3′-SL. 19 enzymes synthesized 6′-SL and were depicted as α-2,6-sialyltransferases. An α-2,3- as well as an α-2,6-sialyltransferase activity could only be observed for 3 enzymes. […] The screening appeared highly accurate since the described activities of extensively characterized sialyltransferases, e. g. […] Regarding the product formation, the experimental setting allowed a semi-quantitative comparison of the screened enzymes. But to achieve deeper knowledge about their kinetic properties, the 3 potentially best performing α-2,3- and α-2,6-sialyltransferases were applied to in vitro assays.

| Molecule | Production of sialyllactose in-vivo |
| --- | --- |
| B1 | 3′-SL |
| B2 | 3′-SL |
| B3 | 3′-SL |
| B4 | 3′-SL |
| B5 | 3′-SL |
| B6 | 3′-SL, 6′-SL |
